The record followed here is article PMC10202384.

pKd: −log10 of the molar value.

This assay has as its target recombinant full-length SARS-CoV-2 spike protein with a C-terminal 8x His-tag (SARS-CoV-2) (UniProt P0DTC2). Briefly: BLI; spike with C-terminal 8x His-tag (0.35 μM) immobilised on nickel nitrilotriacetic acid biosensors; αIIbβ3 in solution, zero to 0.51 μM (68 to 512 nM); 20 mM tris pH 7.4, 137 mM NaCl, 1 mM MgCl2, 1 mM MnCl2, 1 mM CaCl2, 50% glycerol plus 1X Octet Kinetics Buffer; 25 °C; global fit. On the technique in general: Biolayer interferometry detects binding as a change in optical thickness at a sensor tip.

For the substance “platelet-derived purified human αIIbβ3 protein (from UniProt P05106 27-788) (complex)”, the pKd was 7.33.

Usually pKd stands for the Kd on a negative log10 scale, so that one unit is a factor of ten.
